{"source": "patent CN110964118A", "about": "(UNIV CHINA PHARMA, dated 2020)", "key": {"转化生长因子-β1 (TGF-β1)": {"target": "转化生长因子-β1 (TGF-β1) (human, UniProt P01137 279-390)", "sequence (P01137 279-390 limits assumed)": "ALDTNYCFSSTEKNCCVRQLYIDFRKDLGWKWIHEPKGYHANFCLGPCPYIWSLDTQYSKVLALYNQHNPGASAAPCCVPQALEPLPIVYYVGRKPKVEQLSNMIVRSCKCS", "assay": "SPR (Biacore X100), cG7-sTGFBR2 captured by anti-human IgG(Fc) on a CM5 chip, TGF-β1 as analyte, 25℃"}, "[1]": {"target": "T1, CD24裸肽 (CD24 naked peptide, SPR analyte) (human, UniProt P25063 27-59, limits assumed)", "T1 construct": "also called 抗原CD24", "T1 peptide (looked up)": "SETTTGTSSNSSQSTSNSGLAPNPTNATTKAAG", "assay": "SPR (Biacore X100), cG7-sTGFBR2 captured by anti-human IgG(Fc) on a CM5 chip, CD24 naked peptide as analyte, 25℃"}}, "data": [{"binder": "靶向CD24的双特异性融合抗体cG7-sTGFBR2 (anti-CD24 humanized chimeric antibody cG7 fused at the heavy chain C-terminus via Gly4Ser to the human TGFBR2 extracellular domain … (bispecific antibody, human IgG1, kappa, also called 融合双特异性抗体cG7-sTGFBR2) heavy: not shown light: DIVMTQTPLSLSVTIGQPASISCKSSQSLLHSDGKTYLNWLLQRPGQSPKRLIYLVSKLDSGVPDRFTGSGSGTDFTLKVSRVEAEDLGVYYCWQGAHFPYTFGGGTKLEIKVDTVAAPSVFIFPPSDEQLKSGTASVVCLLNNFYPREAKVQWKVDNALQSGNSQESVTEQDSKDSTYSLSSTLTLSKADYEKHKVYACEVTHQGLSSPVTKSFNRGEC", "values": [{"measurement": "Kd", "setting": "转化生长因子-β1 (TGF-β1)", "value": 55.5, "unit": "nM"}, {"measurement": "koff", "setting": "转化生长因子-β1 (TGF-β1)", "value": 0.0636, "unit": "s⁻¹"}, {"measurement": "kon", "setting": "转化生长因子-β1 (TGF-β1)", "value": "1.15e+06", "unit": "M⁻¹ s⁻¹"}, {"measurement": "Kd", "setting": "[1]", "value": 0.122, "unit": "nM"}, {"measurement": "koff", "setting": "[1]", "value": "1.14e-05", "unit": "s⁻¹"}, {"measurement": "kon", "setting": "[1]", "value": 93700, "unit": "M⁻¹ s⁻¹"}]}]}
